2 molecules from article PMC10501992, “How Pol α-primase is targeted to replisomes to prime eukaryotic DNA replication” (Molecular Cell, 2023) can be followed below.

Assay in all cases: cryo-EM structure; human replisome: 150 nM CMG on fork DNA (60 nt or 15 nt 5′ flap) with 1.5-fold molar excess of AND-1, TIMELESS-TIPIN, CLASPIN and Pol α-primase; 25 mM HEPES-NaOH pH 7.6, 150 mM NaOAc, 0.5 mM TCEP, 500 μM AMP-PNP, 10 mM Mg(OAc)2, on ice; 10-30% glycerol gradient with glutaraldehyde and BS3 cross-linkers
In data set [1] the target is T1, POLA1 (human Pol α catalytic subunit) (human, UniProt P09884 1-1462).
T1 construct: POLA1, human; modelled residues 1279-1445 and 1448-1458 (CTD); stood in the assay as a subunit of m18; also called POLA1CTD; POLA1_(exo-cat)
T1 sequence: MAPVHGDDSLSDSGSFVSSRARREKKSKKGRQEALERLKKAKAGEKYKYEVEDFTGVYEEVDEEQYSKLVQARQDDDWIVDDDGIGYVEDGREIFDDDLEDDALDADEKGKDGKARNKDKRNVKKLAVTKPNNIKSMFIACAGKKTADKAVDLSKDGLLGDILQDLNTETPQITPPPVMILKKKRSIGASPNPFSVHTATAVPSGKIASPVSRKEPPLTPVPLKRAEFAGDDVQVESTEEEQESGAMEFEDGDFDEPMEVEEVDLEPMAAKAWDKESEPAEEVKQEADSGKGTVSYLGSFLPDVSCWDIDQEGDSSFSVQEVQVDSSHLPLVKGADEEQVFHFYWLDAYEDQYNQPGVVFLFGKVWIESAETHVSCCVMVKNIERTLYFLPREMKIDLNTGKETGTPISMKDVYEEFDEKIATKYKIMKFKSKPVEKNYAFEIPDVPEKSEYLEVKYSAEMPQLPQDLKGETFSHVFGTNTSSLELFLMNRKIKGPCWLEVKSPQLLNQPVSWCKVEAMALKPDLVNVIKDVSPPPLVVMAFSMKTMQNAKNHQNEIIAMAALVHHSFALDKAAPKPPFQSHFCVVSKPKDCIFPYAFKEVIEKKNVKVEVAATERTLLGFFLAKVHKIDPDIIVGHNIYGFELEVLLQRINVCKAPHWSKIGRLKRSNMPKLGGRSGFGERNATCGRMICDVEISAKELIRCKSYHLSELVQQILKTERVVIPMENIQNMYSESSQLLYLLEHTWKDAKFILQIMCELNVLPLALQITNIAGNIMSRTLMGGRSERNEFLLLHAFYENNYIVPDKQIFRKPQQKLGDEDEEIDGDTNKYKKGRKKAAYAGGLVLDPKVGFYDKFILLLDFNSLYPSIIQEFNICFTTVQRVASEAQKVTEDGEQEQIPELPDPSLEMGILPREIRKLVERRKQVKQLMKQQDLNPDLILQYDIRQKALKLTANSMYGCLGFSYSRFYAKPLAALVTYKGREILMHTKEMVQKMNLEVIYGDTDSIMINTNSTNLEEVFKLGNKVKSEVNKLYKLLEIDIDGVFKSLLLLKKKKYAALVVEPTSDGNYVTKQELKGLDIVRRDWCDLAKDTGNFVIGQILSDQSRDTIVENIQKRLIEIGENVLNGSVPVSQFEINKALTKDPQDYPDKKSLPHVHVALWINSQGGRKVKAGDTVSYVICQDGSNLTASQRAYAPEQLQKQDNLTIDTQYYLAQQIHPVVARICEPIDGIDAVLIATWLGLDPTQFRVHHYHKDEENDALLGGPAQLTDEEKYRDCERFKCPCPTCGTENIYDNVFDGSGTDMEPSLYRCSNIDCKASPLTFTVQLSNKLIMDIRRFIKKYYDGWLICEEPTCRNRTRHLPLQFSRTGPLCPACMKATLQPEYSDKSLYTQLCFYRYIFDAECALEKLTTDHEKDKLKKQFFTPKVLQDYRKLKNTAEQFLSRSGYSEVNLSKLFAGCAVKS
The following applies: both partners purified.

Data set [2] concerns the molecule itself.
The target in data set [3] is T2, human CMG (CDC45-MCM-GINS) replicative helicase (human, UniProt O75419 1-566; P49736 1-904; P25205 1-808; P33991 1-863; P33992 1-734; Q14566 …).
T2 construct: CDC45, human; MCM2, human; MCM3, human; MCM4, human; MCM5, human; MCM6, human; MCM7, human; PSF1, subunit of GINS, human; PSF2, subunit of GINS, human; PSF3, subunit of GINS, human; SLD5, subunit of GINS, human; the subunits are named in the methods for the MCM3-4A form, which was made as the wild type; copies: + + + + + + + + + +
The note with it: both partners purified.

Data set [4] concerns the target T3, POLA2 (human Pol α accessory subunit) (human, UniProt Q14181 1-598).
T3 construct: POLA2, human; stood in the assay as a subunit of m18
T3 sequence: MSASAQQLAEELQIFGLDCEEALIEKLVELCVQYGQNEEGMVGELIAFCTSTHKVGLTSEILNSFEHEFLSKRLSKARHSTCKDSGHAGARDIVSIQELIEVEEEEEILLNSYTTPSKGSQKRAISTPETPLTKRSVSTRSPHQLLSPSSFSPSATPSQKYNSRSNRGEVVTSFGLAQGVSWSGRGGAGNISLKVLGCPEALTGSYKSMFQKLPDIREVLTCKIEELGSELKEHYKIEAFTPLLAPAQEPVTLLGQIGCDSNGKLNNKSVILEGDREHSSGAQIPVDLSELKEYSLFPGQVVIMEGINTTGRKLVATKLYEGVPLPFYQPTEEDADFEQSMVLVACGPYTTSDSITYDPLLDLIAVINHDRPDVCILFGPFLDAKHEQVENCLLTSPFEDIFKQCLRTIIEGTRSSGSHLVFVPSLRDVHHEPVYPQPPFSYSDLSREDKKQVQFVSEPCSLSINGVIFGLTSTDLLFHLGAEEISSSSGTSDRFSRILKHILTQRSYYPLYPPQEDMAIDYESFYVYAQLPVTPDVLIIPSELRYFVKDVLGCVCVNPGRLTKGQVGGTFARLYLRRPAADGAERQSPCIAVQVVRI
The note with it: both partners purified.

B1: AND-1 (human) (natural protein)
chain: MPATRKPMRYGHTEGHTEVCFDDSGSFIVTCGSDGDVRIWEDLDDDDPKFINVGEKAYSCALKSGKLVTAVSNNTIQVHTFPEGVPDGILTRFTTNANHVVFNGDGTKIAAGSSDFLVKIVDVMDSSQQKTFRGHDAPVLSLSFDPKDIFLASASCDGSVRVWQISDQTCAISWPLLQKCNDVINAKSICRLAWQPKSGKLLAIPVEKSVKLYRRESWSHQFDLSDNFISQTLNIVTWSPCGQYLAAGSINGLIIVWNVETKDCMERVKHEKGYAICGLAWHPTCGRISYTDAEGNLGLLENVCDPSGKTSSSKVSSRVEKDYNDLFDGDDMSNAGDFLNDNAVEIPSFSKGIINDDEDDEDLMMASGRPRQRSHILEDDENSVDISMLKTGSSLLKEEEEDGQEGSIHNLPLVTSQRPFYDGPMPTPRQKPFQSGSTPLHLTHRFMVWNSIGIIRCYNDEQDNAIDVEFHDTSIHHATHLSNTLNYTIADLSHEAILLACESTDELASKLHCLHFSSWDSSKEWIIDLPQNEDIEAICLGQGWAAAATSALLLRLFTIGGVQKEVFSLAGPVVSMAGHGEQLFIVYHRGTGFDGDQCLGVQLLELGKKKKQILHGDPLPLTRKSYLAWIGFSAEGTPCYVDSEGIVRMLNRGLGNTWTPICNTREHCKGKSDHYWVVGIHENPQQLRCIPCKGSRFPPTLPRPAVAILSFKLPYCQIATEKGQMEEQFWRSVIFHNHLDYLAKNGYEYEESTKNQATKEQQELLMKMLALSCKLEREFRCVELADLMTQNAVNLAIKYASRSRKLILAQKLSELAVEKAAELTATQVEEEEEEEDFRKKLNAGYSNTATEWSQPRFRNQVEEDAEDSGEADDEEKPEIHKPGQNSFSKSTNSSDVSAKSGAVTFSSQGRVNPFKVSASSKEPAMSMNSARSTNILDNMGKSSKKSTALSRTTNNEKSPIIKPLIPKPKPKQASAASYFQKRNSQTNKTEEVKEENLKNVLSETPAICPPQNTENQRPKTGFQMWLEENRSNILSDNPDFSDEADIIKEGMIRFRVLSTEERKVWANKAKGETASEGTEAKKRKRVVDESDETENQEEKAKENLNLSKKQKPLDFSTNQKLSAFAFKQE
notes: AND-1, human (Ctf4 in budding yeast)
On to B1, for which the binding result in data set [1] and in data set [3] was “binds” throughout. Also, the “stoichiometry N” value in data set [2] was 3.

B2: PSF1 (human GINS subunit) (natural protein)
chain: MFCEKAMELIRELHRAPEGQLPAFNEDGLRQVLEEMKALYEQNQSDVNEAKSGGRSDLIPTIKFRHCSLLRNRRCTVAYLYDRLLRIRALRWEYGSVLPNALRFHMAAEEMEWFNNYKRSLATYMRSLGGDEGLDITQDMKPPKSLYIEVRCLKDYGEFEVDDGTSVLLKKNSQHFLPRWKCEQLIRQGVLEHILS
notes: PSF1, subunit of GINS, human; stood in the assay as a subunit of m19
On to B2, for which the binding result in data set [4] is “binds”.

The term stoichiometry N denotes the number of molecules, sites or subunits per partner or assembly.
